In article doi:10.1101/2020.10.27.356691 (bioRxiv, 2020):

Target: T1, cytochrome P450 CYP124 from Mycobacterium tuberculosis (Mycobacterium tuberculosis, UniProt P9WPP3 1-428)
T1 sequence: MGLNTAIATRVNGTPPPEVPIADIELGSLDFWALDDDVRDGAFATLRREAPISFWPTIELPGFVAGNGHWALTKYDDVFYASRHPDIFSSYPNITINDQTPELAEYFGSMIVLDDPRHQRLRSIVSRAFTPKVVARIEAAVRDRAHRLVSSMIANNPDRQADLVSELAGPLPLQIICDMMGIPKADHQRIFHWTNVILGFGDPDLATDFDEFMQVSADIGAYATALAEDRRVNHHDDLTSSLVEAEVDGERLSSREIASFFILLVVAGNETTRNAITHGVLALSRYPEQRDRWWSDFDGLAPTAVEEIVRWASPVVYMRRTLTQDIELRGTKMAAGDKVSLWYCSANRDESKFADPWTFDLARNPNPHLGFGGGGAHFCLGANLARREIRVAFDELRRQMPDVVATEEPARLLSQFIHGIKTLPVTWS
Experiment: ITC

B1: rubredoxin B (RubB) from Mycobacterium tuberculosis, wild type (natural protein)
chain: MNDYKLFRCIQCGFEYDEALGWPEDGIAAGTRWDDIPDDWSCPDCGAAKSDFEMVEVARS
**Q.** B1 was tested. Which Kd did it give?
**A.** 12.8 µM
